In paper PMC10779143, “Collagen-like Osteoclast-Associated Receptor (OSCAR)-Binding Motifs Show a Co-Stimulatory Effect on Osteoclastogenesis in a Peptide Hydrogel System” (International Journal of Molecular Sciences, 2023):

B1: hRANKL: human RANKL (hRANKL) (catalogue number: 310-01 from Peprotech, London, UK) (protein, UniProt O14788 69-317, looked up)
extracellular domain: YFRAQMDPNRISEDGTHCIYRILRLHENADFQDTTLESQDTKLIPDSCRRIKQAFQGAVQKELQHIVGSQHIRAEKAMVDGSWLDLAKRSKLEAQPFAHLTINATDIPSGSHKVSLSSWYHDRGWAKISNMTFSNGKLIVNQDGFYYLYANICFRHHETSGDLATEYLQLMVYVTKTSIKIPSSHTLMKGGSTKYWSGNSEFHFYSINVGGFFKLRSGEEISIEVSNPSLLDPDQDATYFGAFKVRDID
modifications: extracellular domain
B2: RANKL: RANK ligand (RANKL), as used in cited studies (protein, UniProt O14788 140-317, looked up)
Tumor necrosis factor ligand …: IRAEKAMVDGSWLDLAKRSKLEAQPFAHLTINATDIPSGSHKVSLSSWYHDRGWAKISNMTFSNGKLIVNQDGFYYLYANICFRHHETSGDLATEYLQLMVYVTKTSIKIPSSHTLMKGGSTKYWSGNSEFHFYSINVGGFFKLRSGEEISIEVSNPSLLDPDQDATYFGAFKVRDID

Key:
Raw 264.7 cells [1] = assay: TRAP staining / osteoclast morphology of Raw 264.7 cells on peptide-coated tissue culture plastic; assay type: cell-based
Description: Raw 264.7 cells were cultured and passaged as previously described. Cell adhesion to OP1_Hyp and OP1_Pro was assessed as shown by Barrow et al.. Briefly, 48-well plates were coated with 10 µg/mL of OSCAR-binding peptides overnight at 4 °C. The excess peptide was then removed by washing with PBS before adding 1% BSA to block non-specific binding sites for 1 h at 25 °C. Raw 264.7 cells were then resuspended at a concentration of 2 × 10^5 cells/mL and added to the well. Cells were cultured with different concentrations of human RANKL (hRANKL) (catalogue number: 310-01 from Peprotech, London, UK) (0–100 ng/mL) for up to 5 days to assess the contribution of the OSCAR-binding peptides OP1_Hyp and OP1_Pro to the differentiation of Raw 264.7 cells to mature OCs.
After 5 days of post-culture, Raw 264.7 cells were fixed in 4% PFA for 15 min at room temperature. TRAP was stained following the manufacturer’s protocol and evaluated by light microscopy (ThermoFisher, Swindon, UK). Multinucleated TRAP+ cells containing more than three nuclei were scored as mature OCs.

Raw 264.7 cells [2] = conditions: cited from earlier work

Row | Molecule | Differentiation, 1 ng/mL hRANKL (Raw 264.7 cells [1]; 5 days on TCP, 1 ng/mL hRANKL) | Average cell diameter of treated cells (Raw 264.7 cells [1]; 5 days, 100 ng/mL hRANKL, TCP with OP1_Hyp or OP1_Pro, untreated cells 38.1 ± 8.8 µm) | OSCAR and TRAP levels, 50 ng/mL RANKL only (Raw 264.7 cells [2]; days 1-4, ref Lampiasi et al. [35]) | Lowest optimal concentration for osteoclastic cell formation (Raw 264.7 cells [2]; ref Song et al. [29])
1 | B1 | No differentiation was observed | 273.9 ± 73.4 µm | – | –
2 | B2 | – | – | increased significantly between days 1 and 2 of culture before decreasing sharply on days 3 and 4 | 30 ng/mL
